Test results reported in the NTF2 design screens of Basanta et al. (2020).

Assay: protease stability score; higher = more stable; yeast display proteolysis, trypsin and chymotrypsin;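 also: relative to predicted unfolded state with 0 unfolded-like and 1 meaning tenfold more protease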

Sequence	protease stability score
DHVEEDARTRLKLFLTHWLTGDEHSTNELFDPNVRIDVNGKIIVGRHVLSEEWSRLGIKHSILHIDHIHIDEDEIHIDGILRLIFENHVLDLRVNLHAEKYDGRWHSSEVQVK	1.25
DHVEEEAEEFVRNFIHNMRTGNWKYMEELLDPNVRLRYGDKDHHGREEMVKWIEEAFKKFKNLTIEIKHINIIGDKLIFDLHVEFNGKHHQLHLIVTKIDGKWISKSIHVD	1.47
DHVEEVVRQMVSHILRDYITGDEKSYASLMDPNMRLHIGDKDSIGREEVLRLIREHTRHLGIKHFHLHDVRIRIQGEYVEIKIDVHLEFNGRKFRVIIHLEMHKVNGRWRLHEETIEIE	2.61
DHVEHEVENVLRKTLHSFLTGDFELLHRLADPHVRSDINGVEIHGWEKLSKWILTLIEQVDHSEFDLKDIRLQGDFVRIHGELILRFNGKHIEIRVQSHVEKIDGRWVIHAVKLK	1.11
DHVEKEARKFEKLLRHAETTGDEELYLKMIDPNVRIIIGEKNLVGREEVEKWLQTLGVSKVEIRHVEEKDIEIDEDHIRIHGRIIGRYNGKERDFEKHIIVQKIDGKWVLHTEEIR	0.385
DHWEELIERALDFHRSLLRTGDPEVLERQADPNAKFVVGDKTLHGRESVSDWMNRVKNIQIHMRDLHVIDGKIEMHVQMHYDGRTSHTRLIADKVDGRWIYRSVSVE	0.69
DHWEHVERMYSHEVLHMLETGDEHKFNKLMDPNARIDVGEWDLIGMHRVSHALKEVRDELGIKHSEVKHVDIFNGRVEIHTEVHVDGRSHKVRIEVIYVNGRTKWMRYEQH	0.717
DIEERDAEEAVRRWLHFLQTGDEDWLREQLDPNTRIDIDGREIHGMEEVVNVLLRESRHLGVDVLSFELRHVDRQGDKIIVYGRIRLRVNGRDTEIEVILYMVKVNGVWLMKSMEFR	1.89
DKDDHDFERVLRIFIESIRTGDEDSIRRLADPSVKHVVNGKEFHGREDWEEMIRRIDHIRDFELKSVSIYNGKIEVDGVLTGIFNGREDKTHVHIIMMKVNGRWYIKSWELK	1.93
DKDEDDERKAIDTLVDVLRTGDEHTLQRLLDPNVQLHIGDKRHHGRDEVIRVLHELHRRLGVTRVEVEIQEYHMVDGQIDLRVHLKYGDKTIESEFVLYKVNGRWFVKSLHFK	2.24
DKDEEDLRHVLHLLSRAFMTGDEDELTKLMDPDVRIYYGDKRLHGREEVTRWIREIRAWVHDSKIRHIRRQGEKIILHGEMDMIFDQGDKEVRTRTEITIHTTKINGRWLLNELELR	2.6
DKDEKETKDAIHILLHVARTGDERLLNTLFDPDVKLEVGDKSHHGRETITKVWKDWFHEWRIRDVTYHHVESQGDKIHVDLRIDGIFDGQRTHIESHNVLLKVNGQWLLRREVVH	0.512
DKDERMRNEAFKITEHLHHTGDWHTRSRLADPEVQLIIGDKEYHGRETASEVLHKYLKRLGVDHLELKHFEVKMFDGQLHIHLHIELHINGVIYEVHIHIVMEKINGRWVIKHERIEFR	1.01
DKEDEDIKHLVDRIIHFWETGDFESLLKNVDPNARVEEIFNGKKYHSHGREEFERTLQEWLDRYKNVTIHIREVRMFNGVAIIHAELLIGDKRHEVHLHWFIYDGVLRHVRIQFE	1.49
DKEDEDMERIVKEFLHLHLTGDWKLMAELLDPDVRVEFDGKRYHGRENWSKLLEDEFRRIKNATIRIEIKHIDLQGDFARSEVVLHIIVNGVEHRHEMQIDMKVVNGRIHSIRIVRV	1.47
DKEDEEAKRLLEIFITHHLTGDEEHYQTLMDPHARLDFDGRHNVGREKITEFLRRFGADHVHIKHIEVELYNGKLYVRIEVELRIGDKTMDMIWVLQLRKVDGRWHIRRETWILL	0.703
DKEDEERKRWEERMLQAITTGDEKTLEDLIDPNARYEINGRERHGREDLLKEFSKIKNVRIELRIHHVRFYDGQLEIDLRLILHIDGVDLRHETRIHAQKYDGVWYIKDITFH	1.02
DKEDREAHFLARLFLKIEETGDEETMHKYFDPHVRWIQGDWHMHGREDIIEFVRHMGVTIQMHDHEDIKVFDGRVQIKGHKRVNINGKQFEISVRIDINVINGRIRKVQIDEK	1.32
DKEEDEFRKAFEIVRHTWKTGDEHLLEKLMDPDARMDVNGVHNHGREEATKTVFEIVEKIKNARLEFKRIEVYDGRIFFHMDWDVNGVRVFVLIISIKVDGRWRHKSYSEDRV	0.856
DKEEEDSDEALKWFFDVLRTGDERLIREMLDPDARIEIDGVPSHGRESVEEFVHRIRNMKVDDFQVKRIDVQGDKVRLDTHFDGTINGVRRQVDLTIIARKINGRWFNESISIK	1.91
DKEEEDVKKFTDEFIHHYLTGDWEKIRELADPNVRLIVGDKTLHGRELFIDWLRDELRRIDHIEHHVHRMSVINGKVHIDAELRIYINGRLHQTRIEIHLVIIDGRMRMVELRFR	2.13
DKEEEEVREALRILLEEWHTGDFDRILDLFDPNDRMHIGDKDLHGRHIMEHFYDHMIKRVKNMRIELTDVRFQGDKVWFHVKEHFDGRTISSEIVLVKINGKWRIETIFII	1.46
DKEEEHMREMVRLYQHIRLTGNEEVIRNLADPTMRFDLDFEEKRVTAIGREQYLRVTDKLKKDLGLENIEVRVKEMEAFDGVIHINGHERFNGRSYDTHIWLVIVNGRWEFIRIEIR	0.116
DKEEEKSREFFRIFYELWLTGNEELNERLADPNVYVDINGQEIHGMHVAKNVLTRELEELRVKDIKIDDYKTQGEKAVFHGKWEGYVDGRDSMEHVTVILTVVDGKVDNMSIKFD	0.97
DKEEELIRELMEQFTHWLITGNWKKIVDMADPNVQILYNGQEFHGREELHKALQELLEKLGFKHIEIRRKHVVDGRVHLDGRSIINGRRFEVEYISVIINGVIKEIELRVE	1.95

Sequence	protease stability score
DKEEELMKTFSQLFEHWVETGDETEMLQNADPHAKSRFNGREIHGREDIVELLKRIIDQADHHEVHTDKVKVVGDKIHINSSFHIHIGEFTIRLHYELIVDKINGRWILKEVRLG	0.927
DKEEELSEIAHKIWIHELHTGDFESLEKNMDPHARIIQGDWHYHGRESVYHVFSRIVRMLGVKHIEIHSMEVINGQVHLDTRLHAEGHSRNTHVFFVKINGRWLSKEFEIK	0.711
DKEEELVKKFLELWLHALRTGDEDFIRELFDPHARFVFDGRDFHGMEEFIRIMRHIRFHHIHLHHFDLQGDYVRLDTRVDGNVDGKRVTINTHMIMHKVNGRWVLESYTID	0.839
DKEEEMVRHTATRFLHLLLTGDEEIITHLADPNMRIEVGDKESHGREHFADVIKEFSDHMRIKEWHIEVNEVVNGRILFDIHVDGIIGDKEDRIRFHLDIVVVNGKIKHVRIKIK	1.15
DKEEHDMKRLADLMKRIFETGDWEEFWSLVDPNVRLHWIVNGREYEVIGRENASEMIEITLELLGVDHVEIHDIDVQGDKVHMKTRSIVNGREIDDNYHYIIVDGRLRRVEIKLK	1.81
DKEEHDVHNMWQHLVEVLLTGNEEAIHENLDPDAKLEVGDKRYHGRELVSEVWSRLGINVIQLDDMRPIGNKVHVETTTHFNGKTLEMRIDAHKVNGRWLSESLIIR	0.951
DKEEHLVKILIEILHREWETGDEDSISRNADPNTRVDIGDKHFHGREDAMEVLKRMLHQFPNIKFHIEDMRIIGNFVEIDVVINWNGKDVKSHLVFFKINGRWLTRHVEIR	1.32
DKEEKEAREWSKRFLHLFLTGNEEEFKRLMDPHTQSMLLIDGKRDTHHGRDEATKLLSDWLNHMRLRELRVHDIKVQGDKATLDIRLNVEFNGVELERTSEIIIVVFDGRIKSVIFRIE	1.55
DKEEKELEELVKLMVELSDTGDWKTFYQLADPHTKLHNLVDGKWDEQHGRENFVEVERKLRERFKGLRVERHDISVQGNKVHVDVILHVNGREMEIDEVFVIINGKLESVEIHVR	1.19
DKEERYLEIAVNVIRHQLETGNEEDLLRNIDPDTRLFIDGRLFHGWETAHYLLRKVKNARIEIRSVHLIGDKIHMDTELIVNGVLRETEITARKVDGQWTWHHIRIE	1.39
DKEEVEKIAREALEAAVKGDEDKLKTYLGPDVKYVLGDQEYQGQQVAELVMKLIKKDGARLQLETLKVEGNTVQAQYQFHVDGVTRKAHITMKVKGGRVDEWQVHIDDHAKEALKKG	1.89
DKEFEDVIRMAEHEMKLMETGDWKTHEHLADPNYRVDINGREHIGWDHFVRWLFHMRIHRIEIKEVRVQGEKATLRLKVDGEQGDKRFKTDIEFSLLIVDGRIKEIHIILH	1.36
DKEHKESTKATHDVLRSWKTGDERFREELADPNARMEFNGREHVGREFMSELLRHLWEELGVDHMELKRVIIQGDKIHIDMDLTVGDKSIHLHVTVQKINGKWIIKSIRLELT	-0.192
DKEKEDAVRIVEHWIEALLTGDEHELKKYLDPEVRVEINGRDIHGMHLWSEHFKELRHEELHIHIRTVHVFDGKMSVEGELRIVGEVDGRRTDIIYHTEIEIEKVDGRWHIHHIHLR	-0.195
DKEKEDLKKLSDWWLHAIETGDFETIFRLLDPHVRIEINIGDKTHSIHGREEFYKWLHRVKNLQMTIHHSEPIGDKIRLHGFFVIDGVHHDTRHELYFIDGRLHEVHIHVI	2.21
DKELHIAYHLLKVFEHTLATGDEETSERLLDPDVRFWINGVDFHGWELFSTFMKHARFSFRDSRFHDNRLVNGQINLVGRVRLEIDVDGRRHHTETDVRVVILKVDGRWVIHSMEFK	1.46
DKENHLMRELTRLIVDYINTGDWKEFRKLADPHVRIVIEVGDKRIERHGMEDWLKLVRDRLEEIRTHIEVHDVEAQGDKAHLDGRIRLIVGEFEIVIESRIKVVSIDGKLKEISVHMV	1.48
DKEREHLKQLAEIIIHLWHTGDEEILMHLADPNTRLIIEWNGQESQYHGREEMYTIIRRIYEELGADHIHIEDHDVQGDKVIIHSRLEQGDKRVELHLIVVFVNGRLKEMHIHINDK	2.34
DKETKDSEKMSRMYFEYLLTGDFEKLLEMADPDVRFEFNGKEYIGMHETIEILERIWKDLGIKHSELKKVELQGEKAIIDGRIKYGDKEVNVKIILLVWNGKMREQRIHYQ	1.1
DKFERDLEEALREVLEALETGDEDRLLNLFDPHARIDIDGRDLHGWEDLTRELREIRIRHIHLHDRRIQGEWIHFDTITDGEFNGQRTTVRTHILMLKFDGRWMIREVTFI	1.51
DKHEEALEIAIRLLELVWKTGDFEDFVRLLDPHTRFHYGDKDFIGMELWLRLHEHLGITQIEIRSTHHHRIHAQGDKVILDIEIEGIIGDKETRHRIKLVVVKVDGRWKIKEVHIR	1.09
DKIKHLEDEIEKIFFETIETGDEHLFNQLVDPNVRVRIGDKHSVGREHVERVEREHREHMGVDHVEIRIHDSRTFNGVIHIEGKLHYHVNGRRHEHRIHIFLVVWDGVVRHLEIEIR	0.305
DKKEKDAKEAFDWLVKHVRTGDETMLHELMDPDVKLEIGDKHIVGRENVVHVFSRLIERADHMEFILTDMKVYDGRVESDTILVLHIDGVEIRRKTKITVIKINGRWLLHTVHIE	1.31
DKKQVHDVARTLVQYYVSGNSERVKQLGKEDVELHAGDRTYHGVDQMAKVVEQFKKYGVELEVKDVKVDGNRVTARVQFHKAGTTWEFKVDVQADGGKVDQVRVNVTEEAIKHIQHG	0.715
DKLDKLLREMLELFNHLLKTGDWDTITKLVDPNVRIDINGQELHGMELILEWWLRLGIRNEHERERDRDSQGEFMHVEGHRHIRINGQSTRFDTILHIEIIDGRIKDIKVNLI	1.12
